The target of one test is T1, human SIRPα variant 2 (human, UniProt P78324 31-504).
T1 construct: full length ORF on transfected CHO-K1 cells; also called hSIRPαV2; SIRPαV2
Nature of the test: CELISA, CHO-K1 transfectants; average of two experiments. Here is the method: (§1) The binding specificity of antibody hSIRPα.50A to hSIRPα was compared antibody KWAR23 (Canadian Patent 2939293 A1), in a CELISA format. CHO-K1 cells were transiently transfected with hSIRPαV1, hSIRPαV2, hSIRPβ1, and hSIRPγ (GenBank accession: NM_018556.3) (SEQ ID NO: 39) cDNAs. Subsequently, hSIRPα binding was assessed by CELISA using CHO-K1.hSIRPαV1, CHO-K1.hSIRPαV2, CHO-K1.hSIRPβ1, and CHO-K1.hSIRPγ cells. Detection of bound antibody was performed with goat-anti-mouse IgG-HRP (Southern Biotech) for mouse antibodies including hSIRPα.50A and control antibodies or, alternatively, with goat-anti-human IgG-HRP conjugate (Jackson Immuno Research) for the KWAR23 antibody. KWAR23 (SEQ ID NO: 130; SEQ ID NO: 131) was expressed as a chimeric human IgG4 kappa antibody in CHO cells. As shown in FIG. 2 and the following Table 9, KWAR23 antibody cross-reacts with all members of the SIRP receptor family tested: it binds to hSIRPαV1, hSIRPαV2, hSIRPβ1, and hSIRPγ.
(§2) In addition, the specificity of hSIRPα.50A for all known of hSIRPα alleles (allelic variants as described by Takenaka et al., 2007, Nat Immunol. 8:1313-1323) was further investigated by CELISA using the same strategy as above. To this end, hSIRPα.50A binding was assessed using CHO-K1 cells that were transiently transfected with cDNAs encoding full length hSIRPαV1, hSIRPαV2, hSIRPαV3 (NA07056_V3) (SEQ ID NO: 43), hSIRPαV4 (NA11832_V4) (SEQ ID NO: 45), hSIRPαV5 (NA18502_V5) (SEQ ID NO: 47), hSIRPαV6 (NA18507_V6) (SEQ ID NO: 49), hSIRPαV8 (NA18570_V8) (SEQ ID NO: 51), and hSIRPαV9 (NA18943_V9) (SEQ ID NO: 53).

The target in another test is T2, hSIRPαV4 (NA11832_V4) (human, UniProt P78324 31-504).
T2 construct: also called human SIRPαV4
T2 chain: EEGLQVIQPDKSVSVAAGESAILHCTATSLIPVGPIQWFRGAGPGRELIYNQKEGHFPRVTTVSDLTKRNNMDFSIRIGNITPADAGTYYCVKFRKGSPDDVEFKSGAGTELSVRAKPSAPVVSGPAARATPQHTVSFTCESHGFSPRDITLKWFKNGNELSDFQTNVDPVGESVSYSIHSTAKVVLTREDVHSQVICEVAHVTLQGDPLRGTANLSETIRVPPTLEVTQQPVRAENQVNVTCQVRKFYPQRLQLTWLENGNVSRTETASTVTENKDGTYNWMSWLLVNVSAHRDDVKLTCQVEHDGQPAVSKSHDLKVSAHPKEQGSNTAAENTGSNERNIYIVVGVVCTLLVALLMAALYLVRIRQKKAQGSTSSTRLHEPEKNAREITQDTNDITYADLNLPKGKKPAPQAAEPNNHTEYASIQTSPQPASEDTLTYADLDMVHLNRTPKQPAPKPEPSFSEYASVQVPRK
The description is as above. The procedure: as §1, §2

A further test deals with T3, hSIRPαV8 (NA18570_V8) (human, UniProt P78324 31-504).
T3 construct: also called human SIRPαV8
T3 sequence (P78324 other isoform, or with tags, fused parts or gaps limits assumed): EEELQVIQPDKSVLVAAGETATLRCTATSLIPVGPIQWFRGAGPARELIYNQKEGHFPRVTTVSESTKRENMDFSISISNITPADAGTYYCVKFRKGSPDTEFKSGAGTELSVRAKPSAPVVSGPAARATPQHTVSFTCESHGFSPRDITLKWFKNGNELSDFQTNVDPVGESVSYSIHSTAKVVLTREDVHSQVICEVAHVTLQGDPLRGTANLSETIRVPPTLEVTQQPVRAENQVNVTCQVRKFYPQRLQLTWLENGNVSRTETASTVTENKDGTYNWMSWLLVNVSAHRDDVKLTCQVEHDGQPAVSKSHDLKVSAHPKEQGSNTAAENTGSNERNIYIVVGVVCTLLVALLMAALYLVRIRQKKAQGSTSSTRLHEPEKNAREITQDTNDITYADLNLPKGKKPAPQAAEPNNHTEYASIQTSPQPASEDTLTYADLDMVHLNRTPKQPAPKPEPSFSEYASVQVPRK
Described as above. Here is the method: as §1, §2

A further test concerns the target T4, hSIRPαV3 (NA07056_V3) (human, UniProt P78324 31-504).
T4 construct: also called human SIRPαV3
The test is described as above. The procedure:
as §1, §2

In a further test the target is T5, hSIRPαV5 (NA18502_V5) (human, UniProt P78324 31-504).
T5 construct: also called human SIRPαV5
T5 sequence (P78324 other isoform, or with tags, fused parts or gaps limits assumed): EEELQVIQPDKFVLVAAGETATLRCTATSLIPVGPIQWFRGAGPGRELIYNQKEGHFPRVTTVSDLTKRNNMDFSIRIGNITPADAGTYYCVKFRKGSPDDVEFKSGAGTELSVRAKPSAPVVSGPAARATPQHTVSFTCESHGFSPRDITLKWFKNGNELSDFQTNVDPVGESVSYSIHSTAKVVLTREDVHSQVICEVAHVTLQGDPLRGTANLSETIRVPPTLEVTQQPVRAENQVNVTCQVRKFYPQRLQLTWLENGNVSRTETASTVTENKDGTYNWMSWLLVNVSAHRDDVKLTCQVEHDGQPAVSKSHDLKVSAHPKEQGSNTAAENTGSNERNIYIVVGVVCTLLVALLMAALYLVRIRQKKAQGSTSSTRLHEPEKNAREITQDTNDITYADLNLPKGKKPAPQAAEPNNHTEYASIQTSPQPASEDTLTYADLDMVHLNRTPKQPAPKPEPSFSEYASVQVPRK
The test is described as above. Here is the method:
as §1, §2

In the next test the target is T6, hSIRPαV6 (NA18507_V6) (human, UniProt P78324 31-504).
T6 construct: also called human SIRPαV6
T6 sequence (P78324 31-504 S105P limits assumed): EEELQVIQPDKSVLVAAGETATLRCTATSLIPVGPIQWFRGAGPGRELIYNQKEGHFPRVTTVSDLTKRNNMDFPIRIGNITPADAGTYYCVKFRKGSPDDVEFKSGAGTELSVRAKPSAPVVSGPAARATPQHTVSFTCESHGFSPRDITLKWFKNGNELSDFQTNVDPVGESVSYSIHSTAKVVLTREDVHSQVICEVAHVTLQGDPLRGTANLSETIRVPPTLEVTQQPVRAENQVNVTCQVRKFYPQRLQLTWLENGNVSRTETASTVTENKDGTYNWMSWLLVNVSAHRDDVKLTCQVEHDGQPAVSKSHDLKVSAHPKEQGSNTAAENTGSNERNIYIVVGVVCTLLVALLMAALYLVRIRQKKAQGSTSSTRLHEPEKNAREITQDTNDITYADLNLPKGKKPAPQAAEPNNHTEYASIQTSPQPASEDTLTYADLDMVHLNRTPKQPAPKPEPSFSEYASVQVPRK
The test is described as above. Here is the method: as §1, §2

Another test addresses T7, hSIRPαV9 (NA18943_V9) (human, UniProt P78324 31-504).
T7 construct: also called human SIRPαV9
Described as above. The procedure: as §1, §2

The next test addresses T8, human SIRPα variant 1 (human, UniProt P78324 31-504).
T8 construct: full length ORF on transfected CHO-K1 or HEK293 cells; entry includes the signal peptide; also called hSIRPαV1; SIRPαV1
The test is described as above. Here is the method:
as §1, §2

The target in test [1] is T9, hSIRPα expressed on primary human cells (human, UniProt P78324 31-504).
T9 construct: whole, on cells; also called hSIRPα on primary human CD14+ monocytes; on primary human granulocytes
T9 sequence (P78324 31-504): as the sequence (P78324 31-504 S105P limits assumed) above, with P75S counted along it
Nature of the test: flow cytometry on CD14+ enriched monocytes, human donor 2; blocked ligand: DyLight 488-labeled recombinant hCD47/Fc. The procedure: To assess the blocking ability of hSIRPα.40A, CD14+ enriched monocytes cells were seeded in 96-well round bottomed tissue culture plates and incubated for 45 minutes with FcR Blocking Reagent (Miltenyi Biotec) and hSIRPα.40A antibody (20 μg/mL and dilutions thereof) in PBS/1% BSA at 4° C. […] After this labeling procedure, cells were washed two times, resuspended in PBS/1% BSA containing 0.1 μg/mL DAPI (BioLegend), and analysed by flow cytometry on the FACSVerse (BD Biosciences). Data were processed and analysed with FlowJo V10 software (FlowJo, LLC). […] IC50 values represent the concentration at which half of the inhibition is observed.
(A flow cytometer gives signals particle by particle.)

For a further test, the target named is T10, human SIRPβ1 (human, UniProt O00241 30-398).
T10 construct: also called hSIRPβ1
T10 sequence (O00241 30-398 limits assumed): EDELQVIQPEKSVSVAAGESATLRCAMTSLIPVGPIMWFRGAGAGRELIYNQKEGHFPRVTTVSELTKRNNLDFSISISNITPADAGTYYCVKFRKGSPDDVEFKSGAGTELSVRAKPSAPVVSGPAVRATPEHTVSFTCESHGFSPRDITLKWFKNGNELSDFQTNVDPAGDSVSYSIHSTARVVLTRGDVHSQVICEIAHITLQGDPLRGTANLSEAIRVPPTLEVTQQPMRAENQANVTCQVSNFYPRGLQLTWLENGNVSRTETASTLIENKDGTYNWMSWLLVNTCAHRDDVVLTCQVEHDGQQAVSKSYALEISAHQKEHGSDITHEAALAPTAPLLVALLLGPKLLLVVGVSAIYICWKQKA
Nature of the test: CELISA, CHO-K1 transfectants; average of two experiments. The procedure: as §1

T7 sequence (P78324 31-504 G109S limits assumed): as the sequence (P78324 31-504 S105P limits assumed) above, with P75S, G79S counted along it
T1 sequence (P78324 other isoform, or with tags, fused parts or gaps mutant limits assumed): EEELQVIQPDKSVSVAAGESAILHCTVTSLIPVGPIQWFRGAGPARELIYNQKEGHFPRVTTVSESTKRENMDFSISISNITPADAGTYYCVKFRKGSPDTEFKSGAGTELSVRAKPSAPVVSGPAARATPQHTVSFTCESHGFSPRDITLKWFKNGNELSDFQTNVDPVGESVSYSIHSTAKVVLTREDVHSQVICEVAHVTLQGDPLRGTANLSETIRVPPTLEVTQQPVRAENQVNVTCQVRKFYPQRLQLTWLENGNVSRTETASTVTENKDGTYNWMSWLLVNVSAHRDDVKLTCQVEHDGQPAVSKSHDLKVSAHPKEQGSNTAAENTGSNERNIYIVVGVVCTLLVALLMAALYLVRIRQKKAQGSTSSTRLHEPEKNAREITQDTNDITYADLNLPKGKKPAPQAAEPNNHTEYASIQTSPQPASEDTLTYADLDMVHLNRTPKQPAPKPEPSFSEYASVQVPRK
T8 sequence (P78324 31-504 limits assumed, change not shown): as the sequence (P78324 31-504 S105P limits assumed) above, with P75S counted along it
T4 sequence (P78324 other isoform, or with tags, fused parts or gaps limits assumed): as the sequence (P78324 other isoform, or with tags, fused parts or gaps mutant limits assumed) above, with H24L counted along it

B1: hSIRPα.50A (antibody, V domains shown)
VH: QVQLQQSGPELVKPGASVRISCKASGFTFTNYYIHWVKQRPGQGLEWIGWIYPGNVNTKYNEKFKAKATLTADKSSTTAYMQLSSLASEDSAVYFCARPTIIATDFDVWGAGTTVTVSS
VL: DIVMTQSHKFMSTSVGDRVNITCKASQGVGTAVGWYQQKPGQSPRLLIYWASTRHTGVPDRFTGSGSGTDFSLAISNVQSEDLADYFCQQYSTYPFTFGGGTNLEIK
notes: light chain constant domain not tied; also called mouse hSIRPα.50A; hSIRPα.50A.mIgG1
Consider B1, for which the EC50 – broadly, the concentration that produces a half-maximal response – in the test with human SIRPα variant 2 came to 0.665 nM; in the test with hSIRPαV4 (NA11832_V4), 0.824 nM; in the test with hSIRPαV8 (NA18570_V8) it was 0.644 nM; in the test with hSIRPαV3 (NA07056_V3), 0.688 nM; with hSIRPαV5 (NA18502_V5), 0.765 nM; in the test with hSIRPαV6 (NA18507_V6), 0.954 nM. Also, the EC50 in the test with hSIRPαV9 (NA18943_V9) is 0.733 nM; with human SIRPα variant 1, 0.936 nM.

B2: hSIRPα.40A (antibody, mouse IgG1, kappa, V domains shown)
VH: EVQFQQSGTVLARPGTSVKMSCKASGSTFTSYWMHWVKQGPGQGLQWIGAIYPVNNDTTYNQKFKGKAELTVVTSTSTAYMEVSSLTNEDSAVYYCTRSFYYSLDAAWFVYWGQGTLVTVSA
VL: DIQMTQSPSSLSASLGERVSLTCRASQDIGSRLNWLQQEPDGTIKRLIYATSSLDSGVPKRFSGSRSGSDYSLTISGLESEDFVDYYCLQYASSPFTFGGGTKLEINR
notes: mouse antibody, full chains without signal peptide; also called mouse hSIRPα.40A
As for B2, the “IC50 (read off the curve)” value in [1] is approximately 0.5 nM.

B3: KWAR23 (antibody, V domains shown)
VH: EVQLQQSGAELVKPGASVKLSCTASGFNIKDYYIHWVQQRTEQGLEWIGRIDPEDGETKYAPKFQDKATITADTSSNTAYLHLSSLTSEDTAVYYCARWGAYWGQGTLVTVSS
VL: QIVLTQSPAIMSASPGEKVTLTCSASSSVSSSYLYWYQQKPGSSPKLWIYSTSNLASGVPARFSGSGSGTSYSLTISSMEAEDAASYFCHQWSSYPRTFGAGTKLELK
Molecule B3 gave an EC50 with human SIRPβ1 of 0.161 nM. This lies in the sub-nanomolar range.
